What was measured:
Assay in all cases: single-particle photobleaching
[1] = molecular target: K2P3–WT, tandem subunit of K2P3 and wild-type K2P1 (human) (UniProt O14649)
[2] = molecular target: K2P9–WT, tandem subunit of K2P9 and wild-type K2P1 (human) (UniProt Q9NPC2)
[3] = molecular target: WT–K2P3, tandem subunit of wild-type K2P1 and K2P3 (human) (UniProt O00180)
[4] = molecular target: WT–K2P9, tandem subunit of wild-type K2P1 and K2P9 (human) (UniProt O00180)

Sequence of UniProt O14649 (O14649 whole entry, looked up, tested part not stated): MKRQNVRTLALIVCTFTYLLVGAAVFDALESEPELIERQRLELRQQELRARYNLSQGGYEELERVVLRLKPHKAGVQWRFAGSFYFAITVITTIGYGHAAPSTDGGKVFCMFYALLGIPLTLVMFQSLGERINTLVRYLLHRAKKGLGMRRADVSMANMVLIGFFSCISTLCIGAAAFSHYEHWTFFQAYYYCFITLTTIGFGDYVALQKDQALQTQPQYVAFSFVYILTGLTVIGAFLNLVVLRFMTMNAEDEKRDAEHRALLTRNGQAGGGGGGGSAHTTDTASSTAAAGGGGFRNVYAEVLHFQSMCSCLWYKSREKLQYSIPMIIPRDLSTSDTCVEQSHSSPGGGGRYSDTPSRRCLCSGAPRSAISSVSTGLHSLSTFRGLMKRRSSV
Sequence of UniProt Q9NPC2 (Q9NPC2 whole entry, looked up, tested part not stated): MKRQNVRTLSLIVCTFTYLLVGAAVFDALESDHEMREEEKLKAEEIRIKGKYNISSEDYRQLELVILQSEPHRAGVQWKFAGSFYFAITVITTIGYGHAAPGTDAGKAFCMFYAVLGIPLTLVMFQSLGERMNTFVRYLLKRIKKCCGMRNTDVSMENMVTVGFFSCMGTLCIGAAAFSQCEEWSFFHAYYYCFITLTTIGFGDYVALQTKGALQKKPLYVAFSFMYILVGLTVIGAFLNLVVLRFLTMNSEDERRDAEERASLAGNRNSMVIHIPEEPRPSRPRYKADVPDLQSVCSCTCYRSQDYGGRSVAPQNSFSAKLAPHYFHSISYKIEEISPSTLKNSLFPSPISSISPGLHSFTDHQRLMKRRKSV

GFP-SUMO1 (from UniProt P63165 1-97) (natural protein)
1: stoichiometry N (SUMO1 per channel) [1] | stoichiometry N (SUMO1 per channel) [2] | stoichiometry N (bleaching step per particle) [3] | stoichiometry N (bleaching step per particle) [4]

Source: article PMC3876883
